Reference: article PMC10786891, “Massively parallel profiling of RNA-targeting CRISPR-Cas13d”
Positions count from the first letter of the chain named. Numbers in names are those of the source.

T1: EsCas13d, nuclease-dead (Eubacterium siraeum, UniProt B0MS50, R295A;H300A;R849A;H854A)
T1 sequence: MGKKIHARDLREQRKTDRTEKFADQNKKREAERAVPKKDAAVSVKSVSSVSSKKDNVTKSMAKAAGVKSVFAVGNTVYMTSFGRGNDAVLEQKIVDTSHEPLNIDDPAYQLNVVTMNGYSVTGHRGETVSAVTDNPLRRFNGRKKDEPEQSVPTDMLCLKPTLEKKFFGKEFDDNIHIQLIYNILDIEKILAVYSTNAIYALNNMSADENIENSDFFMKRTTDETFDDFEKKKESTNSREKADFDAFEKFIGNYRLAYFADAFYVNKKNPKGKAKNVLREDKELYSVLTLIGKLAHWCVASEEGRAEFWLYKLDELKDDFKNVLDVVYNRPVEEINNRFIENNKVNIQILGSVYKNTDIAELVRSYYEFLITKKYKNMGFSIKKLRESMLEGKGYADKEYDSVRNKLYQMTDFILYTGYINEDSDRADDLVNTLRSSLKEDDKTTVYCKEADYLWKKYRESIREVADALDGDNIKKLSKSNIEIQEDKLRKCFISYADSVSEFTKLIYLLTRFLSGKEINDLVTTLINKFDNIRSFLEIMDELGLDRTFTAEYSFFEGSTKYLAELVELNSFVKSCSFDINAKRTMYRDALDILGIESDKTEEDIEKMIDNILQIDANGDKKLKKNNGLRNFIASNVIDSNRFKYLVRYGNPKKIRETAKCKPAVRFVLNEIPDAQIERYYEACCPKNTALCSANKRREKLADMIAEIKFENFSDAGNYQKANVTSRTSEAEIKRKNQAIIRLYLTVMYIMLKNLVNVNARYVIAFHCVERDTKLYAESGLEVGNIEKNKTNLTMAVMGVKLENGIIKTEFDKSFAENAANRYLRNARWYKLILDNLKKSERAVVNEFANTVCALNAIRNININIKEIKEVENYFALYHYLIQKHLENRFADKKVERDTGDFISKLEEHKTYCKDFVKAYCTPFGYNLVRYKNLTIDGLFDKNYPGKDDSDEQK

B1: target 1 U3C,C6G (mixed)
RNA 1: CACCCGUGCAAAAAUGCAGGGGUCUAAAACUGAGCGGAUAACCUCUCUAUGG
RNA 2: GGGAAUGGAUCCACAUCUACGAAUUCGUACCAUAGAGAGGUUAUCGGCCCACCGAGAUCGGAAGAGCACACGU
B2: target 1 insC 3' of 20,insG 3' of 3 (mixed)
RNA 1: B1 RNA 1
RNA 2: GGGAAUGGAUCCACAUCUACGAAUUCGUACCACUAGAGAGGUUAUCCGCUGCACCGAGAUCGGAAGAGCACACGU
B3: target 1 insG 3' of 11,insG 3' of 11 (mixed)
RNA 1: B1 RNA 1
RNA 2: GGGAAUGGAUCCACAUCUACGAAUUCGUACCAUAGAGAGGUGGUAUCCGCUCACCGAGAUCGGAAGAGCACACGU
B4: target 1 insU 3' of 18,insU 3' of 9 (mixed)
RNA 1: B1 RNA 1
RNA 2: B2 RNA 2 with C33U, U34A, A35U, C46U, G48C, C49G, U50C, G51U
B5: target 1 U3A,C22A (mixed)
RNA 1: B1 RNA 1
RNA 2: B1 RNA 2 with C30A, G46C, C49A
B6: target 1 insC 3' of 20,insG 3' of 14 (mixed)
RNA 1: B1 RNA 1
RNA 2: B2 RNA 2 with U42G, A44U, U45A, C46U, G48C, C49G, U50C, G51U
B7: target 1 insC 3' of 20,insA 3' of 13 (mixed)
RNA 1: B1 RNA 1
RNA 2: B2 RNA 2 with G41A, U42G, A44U, U45A, C46U, G48C, C49G, U50C, G51U
B8: target 1 insU 3' of 2 (mixed)
RNA 1: B1 RNA 1
RNA 2: GGGAAUGGAUCCACAUCUACGAAUUCGUACCAUAGAGAGGUUAUCCGCUCUACCGAGAUCGGAAGAGCACACGU
B9: target 1 insC 3' of 11,insG 3' of 3 (mixed)
RNA 1: B1 RNA 1
RNA 2: B2 RNA 2 with C33U, U34A, A35G, G36A, A37G, G38A, A39G, G41U, U42C
B10: target 1 insU 3' of 15,insC 3' of 5 (mixed)
RNA 1: B1 RNA 1
RNA 2: B2 RNA 2 with C33U, U34A, A35G, G36A, A37G, G38U, U50C, G51U
B11: target 1 C6G,G15A (mixed)
RNA 1: B1 RNA 1
RNA 2: B1 RNA 2 with G37A, C49U
B12: target 1 insC 3' of 22,insA 3' of 7 (mixed)
RNA 1: B1 RNA 1
RNA 2: B2 RNA 2 with A32C, C33A, C47A, G48C, C49G, U50C, G51U
B13: target 1 insU 3' of 20,insA 3' of 13 (mixed)
RNA 1: B1 RNA 1
RNA 2: B3 RNA 2 with A34U, G35A, A36G, G37A, A38G, G39A, U41A, G43U
B14: target 1 insG 3' of 22 (mixed)
RNA 1: B1 RNA 1
RNA 2: GGGAAUGGAUCCACAUCUACGAAUUCGUACGCAUAGAGAGGUUAUCCGCUCACCGAGAUCGGAAGAGCACACGU
B15: target 1 insG 3' of 8,insG 3' of 1 (mixed)
RNA 1: B1 RNA 1
RNA 2: GGGAAUGGAUCCACAUCUACGAAUUCGUACCAUAGAGAGGUUAUGCCGCUCAGCCGAGAUCGGAAGAGCACACGU
B16: target 1 insA 3' of 13,insG 3' of 1 (mixed)
RNA 1: B1 RNA 1
RNA 2: B15 RNA 2 with G40A, U41G, A43U, U44A, G45U
B17: target 1 insC 3' of 22,insA 3' of 4 (mixed)
RNA 1: B1 RNA 1
RNA 2: B2 RNA 2 with A32C, C33A, U50A, G51U
B18: target 1 insC 3' of 10,insU 3' of 6 (mixed)
RNA 1: B1 RNA 1
RNA 2: B3 RNA 2 with G42U, G43C, U44A, A45U, U46C, C48U
B19: target 1 insG 3' of 10,insA 3' of 8 (mixed)
RNA 1: B1 RNA 1
RNA 2: B3 RNA 2 with G42U, U44A, A45U, U46A
B20: target 1 complement block 5-8 (mixed)
RNA 1: B1 RNA 1
RNA 2: B1 RNA 2 with U44A, C45G, G47C, C49U
B21: target 1 U8A,C21A (mixed)
RNA 1: B1 RNA 1
RNA 2: B1 RNA 2 with C31A, U44A, G46C, C49U
B22: target 1 U10A,A18U (mixed)
RNA 1: B1 RNA 1
RNA 2: B1 RNA 2 with A34U, U42A, G46C, C49U
B23: target 1 insG 3' of 8,insU 3' of 1 (mixed)
RNA 1: B1 RNA 1
RNA 2: B15 RNA 2 with G53U
B24: target 1 insA 3' of 15,insG 3' of 4 (mixed)
RNA 1: B1 RNA 1
RNA 2: B2 RNA 2 with C33U, U34A, A35G, G36A, A37G, G38A, U50G, G51U
B25: target 1 G13A,G15A (mixed)
RNA 1: B1 RNA 1
RNA 2: B1 RNA 2 with G37A, G39A, G46C, C49U
B26: target 1 insA 3' of 8 (mixed)
RNA 1: B1 RNA 1
RNA 2: B8 RNA 2 with C45A, G47C, C48G, U49C, C50U, U51C
B27: target 1 insU 3' of 14,insU 3' of 4 (mixed)
RNA 1: B1 RNA 1
RNA 2: B2 RNA 2 with C33U, U34A, A35G, G36A, A37G, G38A, A39U, G51U
B28: target 1 insU 3' of 22,insG 3' of 8 (mixed)
RNA 1: B1 RNA 1
RNA 2: B2 RNA 2 with C31U, A32C, C33A, C46G, G48C, C49G, U50C, G51U
B29: target 1 insA 3' of 21,insA 3' of 6 (mixed)
RNA 1: B1 RNA 1
RNA 2: B2 RNA 2 with C33A, G48A, C49G, U50C, G51U
B30: target 1 insA 3' of 13,insU 3' of 1 (mixed)
RNA 1: B1 RNA 1
RNA 2: B15 RNA 2 with G40A, U41G, A43U, U44A, G45U, G53U
B31: target 1 C4G,G17U (mixed)
RNA 1: B1 RNA 1
RNA 2: B1 RNA 2 with G35U, G46C, C48G, C49U
B32: target 1 G5A,G12C (mixed)
RNA 1: B1 RNA 1
RNA 2: B1 RNA 2 with G40C, G46C, G47A, C49U
B33: target 1 insC 3' of 22,insU 3' of 5 (mixed)
RNA 1: B1 RNA 1
RNA 2: B2 RNA 2 with A32C, C33A, C49U, U50C, G51U
B34: target 1 insC 3' of 9,insG 3' of 1 (mixed)
RNA 1: B1 RNA 1
RNA 2: B15 RNA 2 with U44C, G45U

biological target: T1, EsCas13d, nuclease-dead; experiment: crRNA (strand 1, pre-loaded); Mg2+; 40 mM Tris-HCl pH 7.5, 150 mM NaCl, 6 mM MgCl2, 1 mM DTT, 0.1% Tween-20, 0.2 mg/ml BSA; 25 C; 10 min per concentration, then washed; details: tags: His6-TwinStrep-SUMO cleaved; N-terminal SNAP kept (SNAP-Surface 488); label: 3' end held by stalled T7 RNA polymerase

Row | Binder | Kd [nM]
1 | B1 | 12.1 ± 0.7
2 | B2 | 8.3 ± 0.5
3 | B3 | 86 ± 26
4 | B4 | 49 ± 8
5 | B5 | 60 ± 17
6 | B6 | 10.1 ± 0.8
7 | B7 | 4.7 ± 0.4
8 | B8 | 9.7 ± 0.8
9 | B9 | 24.9 ± 1.4
10 | B10 | 16.9 ± 2.2
11 | B11 | 14.4 ± 0.8
12 | B12 | 17.6 ± 2.5
13 | B13 | 8.4 ± 1.2
14 | B14 | 31 ± 2.8
15 | B15 | 13.4 ± 0.7
16 | B16 | 3.08 ± 0.21
17 | B17 | 15.9 ± 3.1

Row | Binder | Kd [nM]
18 | B18 | 46 ± 5
19 | B19 | 21.6 ± 1
20 | B20 | 14.7 ± 0.8
21 | B21 | 55 ± 9
22 | B22 | 43 ± 4
23 | B23 | 12.6 ± 0.9
24 | B24 | 6.4 ± 0.6
25 | B25 | 10.3 ± 0.8
26 | B26 | 15.7 ± 1
27 | B27 | 63 ± 13
28 | B28 | 49 ± 4
29 | B29 | 22.1 ± 2.3
30 | B30 | 3.62 ± 0.33
31 | B31 | 39 ± 12
32 | B32 | 13.5 ± 0.5
33 | B33 | 24.3 ± 3.1
34 | B34 | 12.2 ± 1.2
